{"source": "paper PMC4642984", "key": {"[1]": {"molecular_target": "ELucC-BMAL1 deletion mutant Bd4 (mouse) (UniProt Q9WTL8)", "sequence (Q9WTL8 other isoform, or with tags, fused parts or gaps, stated change not applied)": "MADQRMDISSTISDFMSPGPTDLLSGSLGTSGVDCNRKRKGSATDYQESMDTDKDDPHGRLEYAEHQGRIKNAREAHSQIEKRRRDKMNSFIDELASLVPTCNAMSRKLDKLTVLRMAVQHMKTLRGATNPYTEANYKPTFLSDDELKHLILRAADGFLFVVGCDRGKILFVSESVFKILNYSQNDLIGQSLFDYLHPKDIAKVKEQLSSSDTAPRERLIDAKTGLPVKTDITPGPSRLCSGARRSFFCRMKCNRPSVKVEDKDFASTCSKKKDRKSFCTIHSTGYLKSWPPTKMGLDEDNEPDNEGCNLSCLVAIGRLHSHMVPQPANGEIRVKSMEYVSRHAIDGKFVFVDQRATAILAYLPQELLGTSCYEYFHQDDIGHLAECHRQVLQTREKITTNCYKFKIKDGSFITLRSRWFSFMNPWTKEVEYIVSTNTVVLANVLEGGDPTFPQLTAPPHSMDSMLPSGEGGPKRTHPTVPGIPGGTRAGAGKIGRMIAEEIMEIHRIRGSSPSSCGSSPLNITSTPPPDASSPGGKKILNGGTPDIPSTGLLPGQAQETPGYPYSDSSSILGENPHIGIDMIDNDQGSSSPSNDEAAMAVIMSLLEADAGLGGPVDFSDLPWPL", "experiment": "split reporter (BiFC, NanoBiT); Split Luc complementation in living Cos7 cells transfected with ELucN-CK2β and ELucC-BMAL1 (WT or mutant) together with pcDNA, Myc-HA-CRY1, Myc-CRY2 or FLAG-CRY1 (WT or Cd1-4); real-time bioluminescence, averaged peak values"}, "[2]": {"molecular_target": "ELucC-BMAL1 deletion mutant Bd5 (mouse) (UniProt Q9WTL8)", "sequence (Q9WTL8 other isoform, or with tags, fused parts or gaps, stated change not applied)": "as above", "experiment": "split reporter (BiFC, NanoBiT); Split Luc complementation in living Cos7 cells transfected with ELucN-CK2β and ELucC-BMAL1 (WT or mutant) together with pcDNA, Myc-HA-CRY1, Myc-CRY2 or FLAG-CRY1 (WT or Cd1-4); real-time bioluminescence, averaged peak values"}}, "data": [{"substance": "ELucN-CK2β (from UniProt P67870 1-215) (natural protein)", "values": [{"measurement": "Split Luc bioluminescence, fold of BMAL1-WT", "setting": "[1]", "result": 2, "unit": "fold"}, {"measurement": "Split Luc bioluminescence, percent of BMAL1-WT", "setting": "[2]", "result": 30, "unit": "%"}]}]}
